Laboratory results reported in PMC7790537.

Assays:
[1] = biological target: recombinant trimeric HA of A/Victoria/210/2009 (H3N2) (influenza A virus A/Victoria/210/2009 (H3N2))
[2] = biological target: recombinant trimeric HA of A/New Caledonia/20/1999 (H1N1) (influenza A virus A/New Caledonia/20/1999 (H1N1)) (UniProt Q6WG00)

Fab-deficient (ΔFab) IgA1 polymer (from UniProt P01591 23-159) (complex)
> 500 µg/mL: HI activity, minimum HI concentration, Vic210 virus [1] | NT activity, minimum virus-neutralizing concentration, Vic210 virus [1] | HI activity, minimum HI concentration, NC20 virus [2]

Fab-deficient (ΔFab) IgA2m2 polymer (from UniProt P01591 23-159) (complex)
> 500 µg/mL: HI activity, minimum HI concentration, Vic210 virus [1] | NT activity, minimum virus-neutralizing concentration, Vic210 virus [1] | HI activity, minimum HI concentration, NC20 virus [2]
